Measurements from patent US20250034594A1, “RNA-GUIDED GENOME RECOMBINEERING AT KILOBASE SCALE” (THE BOARD OF TRUSTEES OF THE LELAND STANFORD JUNIOR …, priority 2021, published 2025).

B1: SSAP_109: SEQ ID NO: 278; Bacillus (multispecies) (protein, listed as Bacillus sp.)
chain: TQAEKLKNDIAKQEQKNEVAQDDKPKTILDVMMQHKESFEMALPKHLDADRLIRLAVTEFRKNPMLKECTPESLLGAVMQAAQVGLEPDALGSAYLVPYYNKNKNVKEVQLQIGYKGLIELVRRSGQVTSIVANEVYENDEFDFEYGINEKLYHKPTMDADRGKLKCFYAYARFKDGGHAFTVMSVEQINQIRDKFSKSQKNGKHFGPWADHYESMAKKTVIKQLVKYMPISVEIQNQITRDETVHSSFKEEPKPIYAFEESPDIIDAPIEN
B2: SSAP_254: SEQ ID NO: 423; Pediococcus pentosaceus (protein, listed as Pediococcus pentosaceus)
chain: MNDISKVPMKVLVQQDKVQRMLENTLKGKTRQFTTSLINVVNSNQSLADVDQMSVIKSAMVAASLDLPIDQNLGFMWLVPYKGMATPQIGYKGYIQLALRTGQYKKLNTIVVHEGEMKYWNPLTEDFEYDPKGKESDEVIGYLGYLRMINGFEKTVYWTKQNIEDHRMKFSKMSGKAKPSGVWASNYDAMALKTVMRNLLSKWGIMSIEMQQAVVQDEKAPETDVRDVTPTETNSIDSLLAPEPKGEPINDSNEATVPTNAE
B3: SSAP_3: SEQ ID NO: 167; RecT Escherichia coli (protein)
chain: MTKQPPIAKADLQKTQGNRAPAAVKNSDVISFINQPSMKEQLAAALPRHMTAERMIRIATTEIRKVPALGNCDTMSFVSAIVQCSQLGLEPGSALGHAYLLPFGNKNEKSGKKNVQLIIGYRGMIDLARRSGQIASLSARVVREGDEFSFEFGLDEKLIHRPGENEDAPVTHVYAVARLKDGGTQFEVMTRKQIELVRSLSKAGNNGPWVTHWEEMAKKTAIRRLFKYLPVSIEIQRAVSMDEKEPLTIDPADSSVLTGEYSVIDNSEE
B4: SSAP_25: SEQ ID NO: 194 (protein)
chain: NNEVMEKSVEYEVNGNSVKLTPNMIKQFITKGNADVTDQEAIMFMKLAEQQQLNPFLNEVYLIKFKGKPAQNIVAKEAFMKRAEKHSEYDGLEAGIIVQRGEEIKELPGAVCLPTDNLLGGWARVYRKDRKNPFYVQLDFKEFSKGQATWNQMPKNMIRKTAIVNALREAFPEALGAMYTEDDARLEEVKTAEPIKEKAETTQILENKFKELSENGQTEVGDEQTNESTEPEPTAKQEQLL
B5: SSAP_183: SEQ ID NO: 352; Clostridium sp. CAG: 277 (protein, listed as Clostridium sp.)
chain: DFKEELAAKAEVAATTKKSDGVKLTKNMSIVDMIKALEPEIKRALPSVLTPERFVRMALTAVNNTPALAQCTPMSFIAALMNAAQLGLEPNTPLGQAYLIPYKNKKKGVVECQFQIGYKGMIDLVYRNDNVQTIQAHIVRENDHFEYELGLESKLRHIPAMEGRGEMMYVYALFKLTNGGYGFEVLNKEAVIAHAERYSPSYDGFSPWKTDFESKGLELFLILDLSSKQSGK
B6: SSAP_107: SEQ ID NO: 276; Ammoniphilus oxalaticus (protein, listed as Ammoniphilus oxalaticus)
chain: STKATSNELKNQLANRQGNNAATNNNPANTIAAYLKRMAPEIEKALPAHMDADRLARIALTTIRTTPKLLECTIPSLMGAVMQSAQLGLEPGLIGHCYIIPYGKEATFIIGYKGMIDLARRSGNIESIYAHAVYKNDEFEYEYGLKPNLVHKPAMSDQGDFIGAYAVAHFKDGGYQFEFMPKEEIDKRRNRSAASKGGPWVTDYEEMAKKTVVRHMWKYLPISIEIQQAATQDEVVRKDITEDPMPVDVLDIPFEASDAEETSEEGEINFD
B7: SSAP_219: SEQ ID NO: 388; Streptomyces uncialis (protein, listed as Streptomyces uncialis)
chain: SQISTAIATRDNGPAAVVEQYRESLALVMPSHLQQRVGAWIRNTQGLLRRDSKLMEAAQNDVGQFVAVLMDAARLGLEPGTEHYYLVPRWNNKKRATEVTGVRGYQGEIELMYRAGAVSSVIVEVVHTQDQFRFRPGRDARPVHDIDWDLEDRGSLRLVYAYAVMKDGATSKVVVLNRQHIAAARAKSDSAAKDWSPWNTDEEAMWLKTAAHRLTKWVPTSAEYLREQIRAQVAVESEQRPEPLPVAPPPAPGTVDADPDDEGPIDGELVD
B8: SSAP_171: SEQ ID NO: 340; Streptomyces indicus (protein, listed as Streptomyces indicus)
chain: STDARNAVARRAETVGQVEQQAQQQPTLAQQIERMKPEMERALPKHMSADRMARIALTLIRKNPDLATCNTQSFLGALMTCSQLGFEPGSPTQEAYIIPRKGNAEFQLGYQGMVTLFYQHPMASSIKVETVRENDYFEHEEGLEERLVHRPCATGPRGRAIAYYSVARLINGGRTFKVMYPDEIEERRQKLPSKNSPAWRDNYDEMAKKTVLRNHFKALPKSAQLARALAHDGTVRTDATADVIDVAPEYPQRPELEAGPTA
B9: SSAP_31: SEQ ID NO: 200 (protein)
chain: TTVNQTELKNKLAEKAKTPAKTGNTVFDLIRKMEPEIKRALPKQISPERFARIAMTAVRNTPKLQACEPISFIAALMQSAQLGLEPNTPLGQAYLIPYGKEVQFQLGYQGMLTLAYRTGEYQSIYAMPVYANDEFEYEYGLNEKLVHKPAPDPEGEPIYYYAVYKLKNGGHGFVVMSRQQIERHRDKYSPSAKQGKFSPWNTDFDSMAKKTVLKQLLKYAPKSVEFATQIAQDETIKTEIAEDMTEVQGIEVEYEATDDQENQENQEQED

tested on: gene editing with Cas9; test: Screen of 322 new SSAP proteins, gene editing activity with Cas9 (Table 5); type: cell-based; design: Cas9 with SSAP activity: scale not given here; conditions: not given
Outline: (§1)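 Synthetic SSAP candidates, identified computationally, were tested in editing screens using both Cas9 and dCas9.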

With B1 as the molecule, how does the “Cas9 with SSAP activity” value read?
The value was −1.697.

B2 was tested. Which “Cas9 with SSAP activity” value did it give?
Its value is −1.160.

B3 was tested. Which “Cas9 with SSAP activity” value did it give?
The value was −0.942.

For B4, which “Cas9 with SSAP activity” value is on record?
Its value is 0.597.

With B5 as the molecule, how does the “Cas9 with SSAP activity” value read?
The value was −0.476.

Which “Cas9 with SSAP activity” value does the source give for B6 here?
Its value is 0.596.

For B7, which “Cas9 with SSAP activity” value is on record?
Its value is 0.580.

B8 was tested. Which “Cas9 with SSAP activity” value did it give?
The value was −0.924.

How did the “Cas9 with SSAP activity” value turn out when B9 was run?
Its value is −4.826.

same assay, conditions: normalized

How did the “Cas9 with SSAP activity (normalized)” value turn out when B1 was run?
The value was −0.475.

How did the “Cas9 with SSAP activity (normalized)” value turn out when B2 was run?
Its value is −0.694.

How did the “Cas9 with SSAP activity (normalized)” value turn out when B3 was run?
Its value is −0.788.

With B4 as the molecule, how does the “Cas9 with SSAP activity (normalized)” value read?
The value was 0.880.

For B5, which “Cas9 with SSAP activity (normalized)” value is on record?
The value was −0.351.

B6 was tested. Which “Cas9 with SSAP activity (normalized)” value did it give?
The value was 1.792.

With B7 as the molecule, how does the “Cas9 with SSAP activity (normalized)” value read?
Its value is 0.924.

With B8 as the molecule, how does the “Cas9 with SSAP activity (normalized)” value read?
The value was −0.410.

B9 was tested. Which “Cas9 with SSAP activity (normalized)” value did it give?
Its value is −0.842.

tested on: gene editing with dCas9; test: Screen of 322 new SSAP proteins, gene editing activity with dCas9 (Table 5); type: cell-based; design: dCas9 with SSAP activity: scale not given here; conditions: not given
Outline: as §1

Which “dCas9 with SSAP activity” value does the source give for B1 here?
The value was −4.168.

How did the “dCas9 with SSAP activity” value turn out when B2 was run?
The value was −4.178.

Which “dCas9 with SSAP activity” value does the source give for B3 here?
The value was 1.058.

With B4 as the molecule, how does the “dCas9 with SSAP activity” value read?
Its value is −4.113.

B5 was tested. Which “dCas9 with SSAP activity” value did it give?
The value was −4.151.

For B6, which “dCas9 with SSAP activity” value is on record?
The value was −4.159.

For B7, which “dCas9 with SSAP activity” value is on record?
The value was −4.163.

For B8, which “dCas9 with SSAP activity” value is on record?
Its value is −4.132.

With B9 as the molecule, how does the “dCas9 with SSAP activity” value read?
Its value is −4.110.

same assay, conditions: normalized

With B1 as the molecule, how does the “dCas9 with SSAP activity (normalized)” value read?
The value was −0.640.

How did the “dCas9 with SSAP activity (normalized)” value turn out when B2 was run?
The value was −0.675.

How did the “dCas9 with SSAP activity (normalized)” value turn out when B3 was run?
The value was 0.695.

How did the “dCas9 with SSAP activity (normalized)” value turn out when B4 was run?
The value was −0.660.

B5 was tested. Which “dCas9 with SSAP activity (normalized)” value did it give?
The value was −0.615.

For B6, which “dCas9 with SSAP activity (normalized)” value is on record?
The value was −0.615.

For B7, which “dCas9 with SSAP activity (normalized)” value is on record?
The value was −0.726.

With B8 as the molecule, how does the “dCas9 with SSAP activity (normalized)” value read?
Its value is −0.827.

B9 was tested. Which “dCas9 with SSAP activity (normalized)” value did it give?
The value was −0.643.

tested on: gene editing with Cas9 and dCas9; test: Screen of 322 new SSAP proteins, activity across all experiments (Cas9 and dCas9, Table 5); type: cell-based; design: scale not given here; conditions: not given
Outline: as §1

For B1, which “Activity across all experiments” value is on record?
The value was −2.932.

With B2 as the molecule, how does the “Activity across all experiments” value read?
The value was −2.669.

B3 was tested. Which “Activity across all experiments” value did it give?
The value was 0.058.

B4 was tested. Which “Activity across all experiments” value did it give?
The value was −1.758.

B5 was tested. Which “Activity across all experiments” value did it give?
Its value is −2.313.

How did the “Activity across all experiments” value turn out when B6 was run?
Its value is −1.782.

For B7, which “Activity across all experiments” value is on record?
The value was −1.792.

For B8, which “Activity across all experiments” value is on record?
Its value is −2.528.

B9 was tested. Which “Activity across all experiments” value did it give?
Its value is −4.468.
